Reference: patent EP3917571B1

Target: ERp57 (PDIA3), human, endogenous in MDA-MB-231 ER-G2 cells (human) (UniProt P30101)
Experiment: proximity ligation assay on live, intact cells (probes ab10286 and ab13506)

Sequence of UniProt P30101 (P30101 25-505): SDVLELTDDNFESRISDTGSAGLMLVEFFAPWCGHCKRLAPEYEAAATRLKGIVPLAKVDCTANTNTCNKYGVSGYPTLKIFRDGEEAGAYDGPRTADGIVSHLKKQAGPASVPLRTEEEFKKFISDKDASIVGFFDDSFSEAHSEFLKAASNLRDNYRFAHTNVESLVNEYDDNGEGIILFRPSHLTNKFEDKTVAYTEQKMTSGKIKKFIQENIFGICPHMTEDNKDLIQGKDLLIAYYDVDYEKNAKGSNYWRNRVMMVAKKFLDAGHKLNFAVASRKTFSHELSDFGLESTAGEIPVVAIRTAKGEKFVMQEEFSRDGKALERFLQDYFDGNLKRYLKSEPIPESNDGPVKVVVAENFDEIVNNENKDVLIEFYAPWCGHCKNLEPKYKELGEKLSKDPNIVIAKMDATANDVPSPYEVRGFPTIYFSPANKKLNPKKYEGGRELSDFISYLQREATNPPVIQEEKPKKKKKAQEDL

proximity ligation assay signal, fold increase in MDA ER-G2 over wild-type MDA cells: 10 fold
B1: Calnexin (Cnx), human, endogenous in MDA-MB-231 ER-G2 and Huh7 cells (protein, UniProt P27824 21-592, looked up)
chain: HDGHDDDVIDIEDDLDDVIEEVEDSKPDTTAPPSSPKVTYKAPVPTGEVYFADSFDRGTLSGWILSKAKKDDTDDEIAKYDGKWEVEEMKESKLPGDKGLVLMSRAKHHAISAKLNKPFLFDTKPLIVQYEVNFQNGIECGGAYVKLLSKTPELNLDQFHDKTPYTIMFGPDKCGEDYKLHFIFRHKNPKTGIYEEKHAKRPDADLKTYFTDKKTHLYTLILNPDNSFEILVDQSVVNSGNLLNDMTPPVNPSREIEDPEDRKPEDWDERPKIPDPEAVKPDDWDEDAPAKIPDEEATKPEGWLDDEPEYVPDPDAEKPEDWDEDMDGEWEAPQIANPRCESAPGCGVWQRPVIDNPNYKGKWKPPMIDNPSYQGIWKPRKIPNPDFFEDLEPFRMTPFSAIGLELWSMTSDIFFDNFIICADRRIVDDWANDGWGLKKAADGAAEPGVVGQMIEAAEERPWLWVVYILTVALPVFLVILFCCSGKKQTSGMEYKKTDAPQPDVKEEEEEKEEEKDKGDEEEEGEEKLEEKQKSDAEEDGGTVSQEEEDRKPKAEEDEILNRSPRNRKPRRE
modifications: O-GalNAc (Tn) glycosylation mapped at T50, T59, T66, T79, S81 and S86 after GALA activation
